Patent publication US11242370B2, “Neuregulin-4 compounds and methods of use” (Eli Lilly and Company, priority 2019, dated 2022)
Where a chain is given by its changes, count along the chain named. Names and notes keep the numbering of the source. Where two headings read alike, the source gives them in different places. Marks after values point to notes of the source that are not given here. Bridges are numbered along the chain shown (N, C = ends). Where no end group is shown, it is not given here.

Key:
[1] = Plasma pharmacokinetics in rats (toxicology studies)
Protocol: (§1) Example 11 is administered in a single 3 mg/kg dose to male and female monkeys by SC bolus injection.

[2] = Plasma pharmacokinetics in monkeys (toxicology studies); conditions: cynomolgus monkey, in vivo, sc
Protocol: as §1

[3] = Day 4 (96 hours), steady state
From the text: (§4) On Day 4, blood samples are collected to determine plasma concentration and the infusion pump is removed.

in vivo [4] = conditions: rat, plasma, sc
From the text: as §4

in vivo [5] = conditions: rat, plasma, sc, 2.18 mg/kg/day
From the text: At the end of designated infusion phase, blood samples are collected to determine plasma concentration and the infusion pump is removed.

human HER2/HER4 = molecular target: T1, human HER2/HER4 (Homo sapiens, UniProt Q15303); experiment: Human HER2/HER4 phospho-ERK 1/2 assay, purified proteins, CHO-K1 cells; assay type: cell-based
T1 construct: expressed in transfected cells
Protocol: (§2) A cell based assay utilizing CHO-K1 cells overexpressing human or rat HER receptors is used to determine activity of NRG4 compounds. CHO-K1 cells (ATCC) are grown in DMEM-F12 3:1 with 5% FBS with 20 mM HEPES, 40 μg/mL L-Proline, lx antibiotics and were split 1:5 every 2-3 days with TripLE Express (Gibco). Cells are transfected with plasmid DNA encoding HER receptors in pairs (hHER2-3, hHER2-4, rHER2-3 and rHER2-4) with Fugene 6 (Promega) according to the manufacturer's instructions. […] Transfected cells are selected with Puromycin (12 ug/ml) and Hygromycin (1 mg/ml) for 3-4 weeks and clonal lines are obtained by limited dilution cloning into 96 well plates. Clonal lines are selected by appropriate gene expression of HER2, HER3 or HER4 by Taqman method. Lines with appropriate receptor expression are confirmed by NRG1 induced phospho-ERK 1/2 responses. Clones are grown up, harvested, aliquoted into cryovials and then frozen under liquid nitrogen for long-term storage.
(§3) A phospho-ERK1/2 activity assay is utilized with CHO-K1 cells overexpressing human or rat HER receptors to determine potencies and selectivity of purified NRG4 compounds. CHO-K1 cell lines expressing the human or rat HER receptors are cultured with selection medium (DMEM-F12 3:1 with 5% FBS with 20 mM HEPES, 40 μg/mL L-Proline, 1× antibiotics, 12 μg/mL puromycin, 1 mg/mL Hygromycin B). On Day −1 (the day before phospho-ERK1/2 assay), cells are washed once with PBS, detached with enzyme free cell dissociation solution (GIBCO cat #13151-014), and resuspended in plating medium (DMEM-F12 3:1 with 20 mM HEPES, lx antibiotics, 0.2% FBS). Cells are plated in a 96-well Poly-D-Lysine coated plate (BD cat #354640) at 10,000 cells per 0.1 mL per well. Cells are cultured in a tissue culture incubator at 37° C. 5% CO2 overnight. On Day 1 (the day of pERK1/2 assay), plates are incubated at room temperature for 30 min. The culture media are removed followed by addition of 504, ligand at various concentrations diluted in PBS-20 mM HEPES-0.005% BSA. Native human NRG1 and NRG4 peptides are purchased from Reprokine (Tampa, Fla.). The stimulation time is 30 min (except for hHER2-4 1H6 line in which 15 min is used for stimulation). At the end of stimulation, ligands are removed and 704, Lysis buffer (made according to manufacturer's recipe, Perkin Elmer cat #ALSU-PERK-A10K) is added. Plates are incubated at room temperature for 10 min on plate shaker with 350 rpm agitation, then on ice for 1 hour without shaking. 304, of cell lysis is transferred to a 96-well white Optiplate (Perkin Elmer cat #6002290) for phospho-ERK1/2 assay. Briefly 7.5 μL acceptor beads are added to 30 μL lysis in Optiplate. The plate is covered with aluminum foil and incubated at room temperature for 1 hour on plate shaker with 350 rpm agitation. Then 7.5 μL donor beads are added and the plate is covered with aluminum foil and incubated at room temperature for 2 hours on plate shaker with 350 rpm agitation or at 4° C. for overnight (warm up plate at room temperature for 2 h before reading). Alpha signal data are obtained on an Envision instrument (Alpha Technology-compatible plate reader). Donor beads and acceptor beads are made according to assay protocol. The data shown are generated with either the AlphaScreen SureFire p-ERK1/2 (Thr202/Tyr204) assay kit (Cat #TGRES50k) or the AlphaLISA® SureFire® Ultra™ p-ERK 1/2 (Thr202/Tyr204) assay kit (Perkin Elmer cat #ALSU-PERK-A10K). The activity of the NRG1 peptide was similar in both types of assays. Raw data obtained from the Envision instrument is imported into GraphPad Prism software (version 7). The EC50 value is generated by a variable slope-four parameter dose response curve. The % of maximal NRG1 activity data are generated by expressing the average maximal raw data for the NRG4 compound over the average maximal raw data for the native human NRG1 per plate and multiplying by 100. Data are provided below in Tables 7-9. N values reflect number of independent assays run. […]

rat HER2/HER4 = molecular target: T2, rat HER2/HER4 (Rattus norvegicus, UniProt Q62956); experiment: Rat HER2/HER4 phospho-ERK 1/2 assay, purified proteins, CHO-K1 cells; assay type: cell-based
T2 construct: expressed in transfected cells
Protocol: as §2, §3

human HER2/HER3 = molecular target: T3, human HER2/HER3 (Homo sapiens, UniProt P21860); experiment: Human HER2/HER3 phospho-ERK 1/2 assay, purified proteins, CHO-K1 cells; assay type: cell-based; conditions: purified proteins; phospho-ERK1/2
T3 construct: expressed in transfected cells
Protocol: as §2
as §3, with “assays.” for “assays. Raw data obtained from the Envision instrument is imported into GraphPad Prism software (version 7). The EC50 value is generated by a variable slope-four parameter dose response curve. The % of maximal NRG1 activity data are generated by expressing the average maximal raw data for the NRG4 compound over the average maximal raw data for the native human NRG1 per plate and multiplying by 100. Data are provided below in Tables 7-9. N values reflect number of independent assays run.”

rat HER2/HER3 = molecular target: T4, rat HER2/HER3 (Rattus norvegicus, UniProt Q62799); experiment: Rat HER2/HER3 phospho-ERK 1/2 assay, purified proteins, CHO-K1 cells; assay type: cell-based; conditions: phospho-ERK1/2
T4 construct: expressed in transfected cells
Protocol: as §2
A phospho-ERK1/2 activity assay is utilized with CHO-K1 cells overexpressing human or rat HER receptors to determine potencies and selectivity of purified NRG4 compounds. CHO-K1 cell lines expressing the human or rat HER receptors are cultured with selection medium (DMEM-F12 3:1 with 5% FBS with 20 mM HEPES, 40 μg/mL L-Proline, 1× antibiotics, 12 μg/mL puromycin, 1 mg/mL Hygromycin B). On Day −1 (the day before phospho-ERK1/2 assay), cells are washed once with PBS, detached with enzyme free cell dissociation solution (GIBCO cat #13151-014), and resuspended in plating medium (DMEM-F12 3:1 with 20 mM HEPES, lx antibiotics, 0.2% FBS). Cells are plated in a 96-well Poly-D-Lysine coated plate (BD cat #354640) at 10,000 cells per 0.1 mL per well. […] Then 7.5 μL donor beads are added and the plate is covered with aluminum foil and incubated at room temperature for 2 hours on plate shaker with 350 rpm agitation or at 4° C. for overnight (warm up plate at room temperature for 2 h before reading). Alpha signal data are obtained on an Envision instrument (Alpha Technology-compatible plate reader). […]

[6] = test system: rat model of heart failure with reduced ejection fraction (HFrEF); experiment: Rat MI model, Example 11 dose-response, echocardiography; assay type: in vivo
Protocol: A nonclinical efficacy pharmacology study is conducted in a rat model of heart failure with reduced ejection fraction (HFrEF) to identify dose-response relationship for Example 11.
Briefly, the rats are anesthetized and positively ventilated throughout the procedure. […] The left coronary artery is permanently ligated. The sham-operated animals undergo the same procedure except the silk suture is placed around the left coronary artery without being tied. All rats are individually housed in a temperature and humidity controlled room and maintained on a 12 hour light/dark cycle. Three weeks after surgery, rats undergo transthoracic echocardiography for determination of ejection fraction (EF %) and left ventricle dimensions (LVD) using a Vevo 2100 ultrasound system. Rats are randomized across treatment groups according to EF % and LVD.
Measurements of EF % and LVD are expressed as mean values±standard error (SE). Statistical analysis is performed with JMP® 13 software (SAS Institute, Inc.; Cary, N.C.) and Dunnett's Test is used for statistical comparisons across treatment groups. Statistical significance is accepted at P<0.05.
Two to three weeks after MI surgery, animals are allocated to treatment groups and treated with a single injection of vehicle (DPBS) or one of the 3 dose levels (0.3, 1, 3 mg/kg) of Example 11.

cynomolgus monkeys = experiment: Toxicology study in cynomolgus monkeys, cardiac tissue inspection; conditions: male and female monkeys, single 3 mg/kg SC bolus injection
Protocol: as §1

rats = experiment: Toxicology study in rats, cardiac tissue inspection; conditions: single SC injection of 30 mg/kg
[7] = maximal signal relative to native human NRG1 per plate
[8] = purified proteins, phospho-ERK1/2

T2 sequence (Q62956 26-1308): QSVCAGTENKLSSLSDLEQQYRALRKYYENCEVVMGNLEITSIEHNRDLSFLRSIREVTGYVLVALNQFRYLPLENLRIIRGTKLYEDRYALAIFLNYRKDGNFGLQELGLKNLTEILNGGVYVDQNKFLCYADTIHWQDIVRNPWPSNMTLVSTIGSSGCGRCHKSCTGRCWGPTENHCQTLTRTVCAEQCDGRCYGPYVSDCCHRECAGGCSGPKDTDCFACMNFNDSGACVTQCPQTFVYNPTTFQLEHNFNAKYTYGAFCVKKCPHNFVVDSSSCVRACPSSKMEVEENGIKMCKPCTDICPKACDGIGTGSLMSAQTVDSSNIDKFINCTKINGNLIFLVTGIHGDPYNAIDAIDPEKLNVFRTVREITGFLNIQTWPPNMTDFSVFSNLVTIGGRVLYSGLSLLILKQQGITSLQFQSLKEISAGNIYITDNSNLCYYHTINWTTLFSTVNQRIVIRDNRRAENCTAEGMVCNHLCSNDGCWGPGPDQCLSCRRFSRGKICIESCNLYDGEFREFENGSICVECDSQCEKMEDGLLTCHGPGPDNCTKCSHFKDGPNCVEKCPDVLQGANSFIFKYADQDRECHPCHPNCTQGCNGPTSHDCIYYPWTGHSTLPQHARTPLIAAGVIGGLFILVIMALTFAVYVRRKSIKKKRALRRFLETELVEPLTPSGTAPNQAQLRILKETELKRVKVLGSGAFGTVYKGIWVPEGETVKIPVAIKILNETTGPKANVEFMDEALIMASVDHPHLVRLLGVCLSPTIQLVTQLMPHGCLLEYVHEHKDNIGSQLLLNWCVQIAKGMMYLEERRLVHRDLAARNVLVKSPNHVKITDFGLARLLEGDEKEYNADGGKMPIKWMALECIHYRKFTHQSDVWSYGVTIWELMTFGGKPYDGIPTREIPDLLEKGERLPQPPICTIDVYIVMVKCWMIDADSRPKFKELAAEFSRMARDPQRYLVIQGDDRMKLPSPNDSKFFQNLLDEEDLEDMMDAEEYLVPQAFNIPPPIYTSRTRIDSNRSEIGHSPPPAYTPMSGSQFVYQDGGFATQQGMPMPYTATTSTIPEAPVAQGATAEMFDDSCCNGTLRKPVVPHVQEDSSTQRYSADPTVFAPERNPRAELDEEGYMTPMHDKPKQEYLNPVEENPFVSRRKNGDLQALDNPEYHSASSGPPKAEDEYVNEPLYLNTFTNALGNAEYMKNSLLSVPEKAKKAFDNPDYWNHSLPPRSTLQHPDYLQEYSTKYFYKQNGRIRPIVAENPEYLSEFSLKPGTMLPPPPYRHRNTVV
T2 sequence (P06494 23-1257 partner): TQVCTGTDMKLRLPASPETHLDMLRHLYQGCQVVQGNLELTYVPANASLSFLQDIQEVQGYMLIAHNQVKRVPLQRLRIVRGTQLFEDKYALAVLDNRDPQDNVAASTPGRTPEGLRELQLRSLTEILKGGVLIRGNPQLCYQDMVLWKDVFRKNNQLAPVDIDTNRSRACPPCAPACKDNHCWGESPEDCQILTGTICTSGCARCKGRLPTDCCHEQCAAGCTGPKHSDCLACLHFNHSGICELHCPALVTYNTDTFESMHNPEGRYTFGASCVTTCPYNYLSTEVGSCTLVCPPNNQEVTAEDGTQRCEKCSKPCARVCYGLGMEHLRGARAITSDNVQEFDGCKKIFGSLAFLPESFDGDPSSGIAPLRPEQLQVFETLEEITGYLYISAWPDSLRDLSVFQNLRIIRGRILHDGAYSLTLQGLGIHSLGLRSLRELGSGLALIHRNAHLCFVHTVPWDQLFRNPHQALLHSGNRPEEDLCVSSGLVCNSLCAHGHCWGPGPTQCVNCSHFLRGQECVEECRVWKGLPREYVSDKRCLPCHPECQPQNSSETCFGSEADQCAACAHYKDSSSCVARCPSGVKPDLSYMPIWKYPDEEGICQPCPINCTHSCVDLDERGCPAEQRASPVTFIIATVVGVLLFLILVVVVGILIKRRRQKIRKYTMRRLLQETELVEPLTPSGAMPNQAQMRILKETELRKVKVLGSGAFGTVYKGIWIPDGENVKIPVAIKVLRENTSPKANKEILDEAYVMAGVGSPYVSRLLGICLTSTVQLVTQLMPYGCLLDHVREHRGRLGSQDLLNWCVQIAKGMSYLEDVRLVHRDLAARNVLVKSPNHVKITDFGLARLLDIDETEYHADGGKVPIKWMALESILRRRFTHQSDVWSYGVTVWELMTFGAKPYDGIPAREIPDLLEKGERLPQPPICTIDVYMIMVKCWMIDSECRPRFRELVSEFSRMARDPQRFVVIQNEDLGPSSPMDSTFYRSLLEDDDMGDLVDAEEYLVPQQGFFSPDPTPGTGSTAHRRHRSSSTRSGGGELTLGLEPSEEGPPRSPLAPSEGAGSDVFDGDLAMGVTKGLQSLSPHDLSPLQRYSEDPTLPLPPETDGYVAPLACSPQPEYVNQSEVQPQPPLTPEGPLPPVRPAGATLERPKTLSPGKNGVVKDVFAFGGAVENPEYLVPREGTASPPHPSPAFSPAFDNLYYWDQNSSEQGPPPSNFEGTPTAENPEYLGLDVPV
T4 sequence (Q62799 20-1339): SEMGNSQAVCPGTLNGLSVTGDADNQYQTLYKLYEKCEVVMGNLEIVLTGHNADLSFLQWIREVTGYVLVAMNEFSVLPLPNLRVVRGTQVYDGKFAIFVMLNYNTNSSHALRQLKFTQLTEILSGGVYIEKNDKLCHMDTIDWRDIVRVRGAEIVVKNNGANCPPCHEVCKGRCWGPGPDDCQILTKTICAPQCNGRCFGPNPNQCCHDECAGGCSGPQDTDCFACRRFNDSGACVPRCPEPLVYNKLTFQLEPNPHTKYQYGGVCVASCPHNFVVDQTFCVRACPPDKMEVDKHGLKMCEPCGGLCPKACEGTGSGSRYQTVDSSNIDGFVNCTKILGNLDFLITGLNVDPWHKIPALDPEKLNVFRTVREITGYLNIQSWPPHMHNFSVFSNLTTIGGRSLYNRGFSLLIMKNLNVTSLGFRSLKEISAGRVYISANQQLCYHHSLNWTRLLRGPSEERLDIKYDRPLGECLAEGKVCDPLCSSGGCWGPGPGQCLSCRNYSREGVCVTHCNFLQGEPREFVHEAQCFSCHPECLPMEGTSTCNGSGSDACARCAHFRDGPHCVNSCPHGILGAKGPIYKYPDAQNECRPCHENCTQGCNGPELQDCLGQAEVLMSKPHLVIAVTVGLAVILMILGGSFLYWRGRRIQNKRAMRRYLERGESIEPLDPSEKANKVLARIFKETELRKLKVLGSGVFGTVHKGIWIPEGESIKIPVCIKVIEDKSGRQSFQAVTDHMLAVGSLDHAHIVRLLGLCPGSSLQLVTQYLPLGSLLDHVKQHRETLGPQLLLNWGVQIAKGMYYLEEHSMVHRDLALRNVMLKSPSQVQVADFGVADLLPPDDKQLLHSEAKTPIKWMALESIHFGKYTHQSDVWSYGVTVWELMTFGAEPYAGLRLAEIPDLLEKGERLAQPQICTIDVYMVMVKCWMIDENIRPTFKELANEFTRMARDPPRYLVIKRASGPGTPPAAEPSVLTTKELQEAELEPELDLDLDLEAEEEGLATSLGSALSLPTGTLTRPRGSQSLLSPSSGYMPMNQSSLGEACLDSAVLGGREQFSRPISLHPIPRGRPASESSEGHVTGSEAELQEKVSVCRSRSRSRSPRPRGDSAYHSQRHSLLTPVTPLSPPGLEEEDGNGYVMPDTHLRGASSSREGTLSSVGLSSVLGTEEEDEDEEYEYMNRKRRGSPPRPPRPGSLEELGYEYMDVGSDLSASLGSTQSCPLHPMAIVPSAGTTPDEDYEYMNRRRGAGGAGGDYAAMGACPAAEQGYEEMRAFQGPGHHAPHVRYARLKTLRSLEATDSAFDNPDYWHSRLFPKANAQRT
T4 sequence (P06494 23-1257 partner): as the sequence (P06494 23-1257 partner) above

H-GGGGSGHEEPCGPSHKSFCLNGGLCYQIPTIPSPFCRCVENYTGARCEKVFL (disulfide 11-25, 19-36, 38-47 (inferred)) [Example 9]
half-life after SC administration ([1]; rats): less than an hour | half-life [2]: < 5 h | Exposure in rat plasma, Mean ([3]; 2.18 mg/kg/day SC infusion): 29.62 nM | Exposure in rat plasma, Mean ([3]; 7.28 mg/kg/day SC infusion): 72.24 nM | level at time molar at 96 h (in vivo [4]; 0.22 mg/kg/day): 2.59 nM | level at time molar at 96 h (in vivo [4]; 0.73 mg/kg/day): 9.94 nM | level at time molar at 48 h (in vivo [5]): 40.1 nM | level at time molar at 72 h (in vivo [5]): 47.3 nM | level at time molar at 96 h (in vivo [5]): 31.4 nM

B1: Example 11: NRG4 D1G/V22Q/E44K, (GGGGS)3 linker, SEQ ID NO: 19, fused to IgG Fc dimer SEQ ID NO: 8 and 9 (protein)
chain 1: GGGGSGGGGSGGGGSGHEEPCGPSHKSFCLNGGLCYQIPTIPSPFCRCVENYTGARCEKVFL
chain 2: ECPPCPAPPVAGPSVFLFPPKPKDTLMASRTPEVTCVVVDVSHEDPEVQFNWYVDGVEVHNAKTKPREEQFNSTFRVVSVLTVVHQDWLNGKEYKCKVSNKGLPAPIEKTISKTKGQPREPQVYTLPPSREEMTKNQVSLWCLVKGFYPSDIAVEWESNGQPENNYKTTPPVLDSDGSFFLYSKLTVDKSRWQQGNVFSCSVMHEALHNAYTQKSLSLSPG
chain 3: B1 chain 2 with W141S, L143A, Y182V
% Maximal NRG1 activity (human HER2/HER4; [7]): 79 ± 2 (N = 5) % | EC50 (human HER2/HER4; [8]): 0.55 ± 0.11 nM | % Maximal NRG1 activity (rat HER2/HER4; [7]): 96 ± 2 (N = 2) % | EC50 (rat HER2/HER4; [8]): 0.17 ± 0.06 nM | EC50 (human HER2/HER3): > 1000 nM | EC50 (rat HER2/HER3): > 1000 nM | Ejection Fraction ([6]; 0.3 mg/kg single injection, 7 days after dosing): 50.1* % | Ejection Fraction ([6]; 0.3 mg/kg single injection, 14 days after dosing): 42.6% | Ejection Fraction ([6]; 0.3 mg/kg single injection, 21 days after dosing): 36.4% | Ejection Fraction ([6]; 0.3 mg/kg single injection, Baseline (before dosing)): 45.4% | Ejection Fraction ([6]; 1 mg/kg single injection, 7 days after dosing): 52.4* % | Ejection Fraction ([6]; 1 mg/kg single injection, 14 days after dosing): 42.2% | Ejection Fraction ([6]; 1 mg/kg single injection, 21 days after dosing): 39.7% | Ejection Fraction ([6]; 1 mg/kg single injection, Baseline (before dosing)): 46.6% | Ejection Fraction ([6]; 3 mg/kg single injection, 7 days after dosing): 54.7* % | Ejection Fraction ([6]; 3 mg/kg single injection, 14 days after dosing): 54.0* % | Ejection Fraction ([6]; 3 mg/kg single injection, 21 days after dosing): 39.6% | Ejection Fraction ([6]; 3 mg/kg single injection, Baseline (before dosing)): 45.8% | LVD dilation ([6]; 0.3, 1, 3 mg/kg single injection vs vehicle, course of the study (data not shown)): No differences in LVD dilation are observed across groups | inspections of tissue (cardiac toxicity) (cynomolgus monkeys): cardiac degeneration and necrosis | plasma concentration ([1]; rat, in vivo, sc, 30 mg/kg): undetectable at 96 hours | time for detectable plasma concentrations to be cleared ([2]; 3 mg/kg): > 168 h | inspections of tissue (cardiac toxicity) (rats): no evidence of cardiac degeneration and/or necroses
